Results taken from patent US20050222029A1 (MYRIAD GENETICS, published 2005).

T1: Tumor Suppressor (TSG101) 231-391 (human, UniProt Q99816 231-390)
T1 construct: bait (Gal4 DBD fusion)
T1 sequence (looked up): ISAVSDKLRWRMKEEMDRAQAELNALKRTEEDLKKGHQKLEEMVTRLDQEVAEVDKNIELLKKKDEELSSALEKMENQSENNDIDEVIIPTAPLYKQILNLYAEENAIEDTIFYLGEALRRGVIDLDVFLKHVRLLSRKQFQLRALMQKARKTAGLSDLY

T2: Tumor Suppressor (TSG101) 240-391 (human, UniProt Q99816 240-390)
T2 construct: range 240-391; bait (Gal4 DBD fusion); also called TSG101 240-390
T2 sequence (looked up): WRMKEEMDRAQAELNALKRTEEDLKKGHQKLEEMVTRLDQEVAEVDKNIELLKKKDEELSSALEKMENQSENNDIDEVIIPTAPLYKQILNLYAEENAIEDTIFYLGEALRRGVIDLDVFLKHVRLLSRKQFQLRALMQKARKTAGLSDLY

T3: Tumor Suppressor (TSG101) 12-326 (human, UniProt Q99816 12-326)
T3 construct: bait (Gal4 DBD fusion)
T3 sequence (looked up): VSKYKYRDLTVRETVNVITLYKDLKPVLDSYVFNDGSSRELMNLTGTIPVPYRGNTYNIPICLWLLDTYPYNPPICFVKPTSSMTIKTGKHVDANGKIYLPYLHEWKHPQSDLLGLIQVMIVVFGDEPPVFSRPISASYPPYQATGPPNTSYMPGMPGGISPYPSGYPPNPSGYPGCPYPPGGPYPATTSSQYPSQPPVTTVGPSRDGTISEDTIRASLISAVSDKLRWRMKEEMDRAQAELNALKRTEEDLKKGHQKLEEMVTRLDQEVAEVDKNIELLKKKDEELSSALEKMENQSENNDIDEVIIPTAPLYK

B1: GrpE-Like protein cochaperone (PN19062) 40-89 (other)
chain: LEEDMGQSEQKADPPATEKTLLEEKVKLEEQLKETVEKYKRALADTENLR
notes: prey (Gal4 AD-HA fusion); also called PN19062/HMGE; GRPEL1
B2: Chromosome-associated polypeptide HCAP (HCAP) 208-300 (other, human, UniProt Q9UQE7 208-300, looked up)
chain: EELAQYQKWDKMRRALEYTIYNQELNETRAKLDELSAKRETSGEKSRQLRDAQQDARDKMEDIERQVRELKTKISAMKEEKEQLSAERQEQIK
notes: prey (Gal4 AD-HA fusion)
B3: Rho-associated (ROCK1) 462-617 (enzyme, human, UniProt Q13464 462-617, looked up)
chain: KIMKELDEEGNQRRNLESTVSQIEKEKMLLQHRINEYQRKAEQENEKRRNVENEVSTLKDQLEDLKKVSQNSQLANEKLSQLQKQLEEANDLLRTESDTAVRLRKSHTEMSKSISQLESLNRELQERNRILENSKSQTDKDYYQLQAILEAERRDR
notes: prey (Gal4 AD-HA fusion); also called ROK; p160
B4: Tropomyosin TM30pl (TPM4) 91-142 (other, human, UniProt P67936 91-142, looked up)
chain: MKVIENRAMKDEEKMEIQEMQLKEAKHIAEEADRKYEEVARKLVILEGELER
notes: prey (Gal4 AD-HA fusion)
B5: Zink finger protein 231 (ZNF231) 2308-2438 (other, human, UniProt Q9UPA5 2308-2438, looked up)
chain: EEPLPTTTPAAIKEAAGAPAPAPLAGQKPPADAAPGGGSGALSRPGFEKEEASQEERQRKQQEQLLQLERERVELEKLRQLRLQEELERERVELQRHREEEQLLVQRELQELQTIKHHVLQQQQEERQAQF
notes: prey (Gal4 AD-HA fusion)
B6: Tropomyosin TM30pl (TPM4) 79-142 (other, human, UniProt P67936 79-142, looked up)
chain: EAEKAADESERGMKVIENRAMKDEEKMEIQEMQLKEAKHIAEEADRKYEEVARKLVILEGELER
notes: prey (Gal4 AD-HA fusion)
B7: Mitotic spindle coiled-coil related protein 942-1021 (other, human, UniProt Q96R06 942-1021, looked up)
chain: LGSDKSAFTRVASMVSLQPAETPGMEESLAEMSIMTTELQSLCSLLQESKEEAIRTLQRKICELQARLQAQEEQHQEVQK
notes: prey (Gal4 AD-HA fusion)
B8: Keratin 5 379-452 (other, human, UniProt P13647 379-452, looked up)
chain: LRNTKHEISEMNRMIQRLRAEIDNVKKQCANLQNAIADAEQRGELALKDARNKLAELEEALQKAKQDMARLLRE
notes: prey (Gal4 AD-HA fusion)
B9: GTPase-activiating protein 1 1439-1565 (other, human, UniProt P46940 1439-1565, looked up)
chain: KKSKSVKEDSNLTLQEKKEKIQTGLKKLTELGTVDPKNKYQELINDIARDIRNQRRYRQRRKAELVKLQQTYAALNSKATFYGEQVDYYKSYIKTCLDNLASKGKVSKKPREMKGKKSKKISLKYTA
notes: prey (Gal4 AD-HA fusion); also called IQGAP1; IQGAP
B10: GTPase-activiating protein 1 1406-1547 (other, human, UniProt P46940 1406-1547, looked up)
chain: EILETPATSEQEAEHQRAMQRRAIRDAKTPDKMKKSKSVKEDSNLTLQEKKEKIQTGLKKLTELGTVDPKNKYQELINDIARDIRNQRRYRQRRKAELVKLQQTYAALNSKATFYGEQVDYYKSYIKTCLDNLASKGKVSKK
notes: as for B9
B11: GTPase-activiating protein 1 1463-1568 (other, human, UniProt P46940 1463-1568, looked up)
chain: LKKLTELGTVDPKNKYQELINDIARDIRNQRRYRQRRKAELVKLQQTYAALNSKATFYGEQVDYYKSYIKTCLDNLASKGKVSKKPREMKGKKSKKISLKYTAARL
notes: as for B9
B12: Keratin 5 347-485 (other, human, UniProt P13647 347-485, looked up)
chain: EEIANRSRTEAESWYQTKYEELQQTAGRHGDDLRNTKHEISEMNRMIQRLRAEIDNVKKQCANLQNAIADAEQRGELALKDARNKLAELEEALQKAKQDMARLLREYQELMNTKLALDVEIATYRKLLEGEECRLSGEG
notes: prey (Gal4 AD-HA fusion)
B13: Keratin 5 349-475 (other, human, UniProt P13647 349-475, looked up)
chain: IANRSRTEAESWYQTKYEELQQTAGRHGDDLRNTKHEISEMNRMIQRLRAEIDNVKKQCANLQNAIADAEQRGELALKDARNKLAELEEALQKAKQDMARLLREYQELMNTKLALDVEIATYRKLLE
notes: prey (Gal4 AD-HA fusion)
B14: Keratin 5 335-473 (other, human, UniProt P13647 335-473, looked up)
chain: LDSIIAEVKAQYEEIANRSRTEAESWYQTKYEELQQTAGRHGDDLRNTKHEISEMNRMIQRLRAEIDNVKKQCANLQNAIADAEQRGELALKDARNKLAELEEALQKAKQDMARLLREYQELMNTKLALDVEIATYRKL
notes: prey (Gal4 AD-HA fusion)
B15: GTPase-activiating protein 1 1439-1567 (other, human, UniProt P46940 1439-1567, looked up)
chain: KKSKSVKEDSNLTLQEKKEKIQTGLKKLTELGTVDPKNKYQELINDIARDIRNQRRYRQRRKAELVKLQQTYAALNSKATFYGEQVDYYKSYIKTCLDNLASKGKVSKKPREMKGKKSKKISLKYTAAR
notes: as for B9
B16: Intersection 1 437-584 (other, human, UniProt Q15811 437-584, looked up)
chain: AKRELERQRQLEWERNRRQELLNQRNKEQEDIVVLKAKKKTLEFELEALNDKKHQLEGKLQDIRCRLTTQRQEIESTNKSRELRIAEITHLQQQLQESQQMLGRLIPEKQILNDQLKQVQQNSLHRDSLVTLKRALEAKELARQHLRD
notes: prey (Gal4 AD-HA fusion); also called Intersectin 1; ITSN1
B17: Keratin 5 325-446 (other, human, UniProt P13647 325-446, looked up)
chain: LSMDNNRNLDLDSIIAEVKAQYEEIANRSRTEAESWYQTKYEELQQTAGRHGDDLRNTKHEISEMNRMIQRLRAEIDNVKKQCANLQNAIADAEQRGELALKDARNKLAELEEALQKAKQDM
notes: prey (Gal4 AD-HA fusion)
B18: Intersection 1 436-547 (other, human, UniProt Q15811 436-547, looked up)
chain: AAKRELERQRQLEWERNRRQELLNQRNKEQEDIVVLKAKKKTLEFELEALNDKKHQLEGKLQDIRCRLTTQRQEIESTNKSRELRIAEITHLQQQLQESQQMLGRLIPEKQI
notes: as for B16
B19: GTPase-activiating protein 1 1404-1553 (other, human, UniProt P46940 1404-1553, looked up)
chain: LTEILETPATSEQEAEHQRAMQRRAIRDAKTPDKMKKSKSVKEDSNLTLQEKKEKIQTGLKKLTELGTVDPKNKYQELINDIARDIRNQRRYRQRRKAELVKLQQTYAALNSKATFYGEQVDYYKSYIKTCLDNLASKGKVSKKPREMKG
notes: as for B9
B20: Keratin 8 293-394 (other, human, UniProt P05787 293-394, looked up)
chain: AGKHGDDLRRTKTEISEMNRNISRLQAEIEGLKGQRASLEAAIADAEQRGELAIKDANAKLSELEAALQRAKQDMARQLREYQELMNVKLALDIEIATYRKL
notes: prey (Gal4 AD-HA fusion)
B21: Keratin 5 384-475 (other, human, UniProt P13647 384-475, looked up)
chain: HEISEMNRMIQRLRAEIDNVKKQCANLQNAIADAEQRGELALKDARNKLAELEEALQKAKQDMARLLREYQELMNTKLALDVEIATYRKLLE
notes: prey (Gal4 AD-HA fusion)
B22: Golgi autoantigen (Golgin-84) 198-497 (other, human, UniProt Q8TBA6 198-497, looked up)
chain: SKENVSSNAACPDHTPTPNDDGKSHELSNLRLENQLLRNEVQSLNQEMASLLQRSKETQEELNKARARVEKWNADHSKSDRMTRGLRAQVDDLTEAVAAKDSQLAVLKVRLQEADQLLSTRTEALEALQSEKSRIMQDQSEGNSLQNQALQTFQERLHEADATLKREQESYKQMQSEFAARLNKVEMERQNLAEAITLAERKYSDEKKRVDELQQQVKLYKLNLESSKQELIDYKQKATRILQSKEKLINSLKEGSGFEGLDSSTASSMELEELRHEKEMQREEIQKLMGQIHQLRSELQ
notes: prey (Gal4 AD-HA fusion)
B23: novel protein PN9667 268-422 (other)
chain: KAKEKEVEKIEQNGLALIQNKKEDVSSIVMSTLRELGQTWANLDHMVGQLKILLKSVLDQWSSHKVAFDKINSYLMEARYSLSRFRLLTGSLEAVQVQVDNLQNLQDDLEKQERSLQKFGSITNQLLKECHPPVTETLTNTLKEVNMRWNNLLEE
notes: prey (Gal4 AD-HA fusion)
B24: Kinesin Family Member 5A (KIF5A) 564-725 (other, human, UniProt Q12840 564-725, looked up)
chain: IVGNGEIKLPVEISGAIEEEFTVARLYISKIKSEVKSVVKRCRQLENLQVECHRKMEVTGRELSSCQLLISQHEAKIRSLTEYMQSVELKKRHLEESYDSLSDELAKLQAQETVHEVALKDKEPDTQDADEVKKALELQMESHREAHHRQLARLRDEINEKQ
notes: prey (Gal4 AD-HA fusion)
B25: Golgi autoantigen (Golgin-84) 198-501 (other, human, UniProt Q8TBA6 198-501, looked up)
chain: SKENVSSNAACPDHTPTPNDDGKSHELSNLRLENQLLRNEVQSLNQEMASLLQRSKETQEELNKARARVEKWNADHSKSDRMTRGLRAQVDDLTEAVAAKDSQLAVLKVRLQEADQLLSTRTEALEALQSEKSRIMQDQSEGNSLQNQALQTFQERLHEADATLKREQESYKQMQSEFAARLNKVEMERQNLAEAITLAERKYSDEKKRVDELQQQVKLYKLNLESSKQELIDYKQKATRILQSKEKLINSLKEGSGFEGLDSSTASSMELEELRHEKEMQREEIQKLMGQIHQLRSELQDMEA
notes: prey (Gal4 AD-HA fusion)
B26: Accessory proteins BAP31/BAP29 (BAP31) 184-246 (other, human, UniProt P51572 184-246, looked up)
chain: LKADLQKLKDELASTKQKLEKAENQVLAMRKQSEGLTKEYDRLLEEHAKLQAAVDGPMDKKEE
notes: prey (Gal4 AD-HA fusion)

The binders below were run against T1, Tumor Suppressor (TSG101) 231-391 (assay: yeast two-hybrid).

binding result	Binder
binds	B1
binds	B2
binds	B3
binds	B4
binds	B5
binds	B6

These binders were tested against T2, Tumor Suppressor (TSG101) 240-391 (assay: yeast two-hybrid).

binding result	Binder
binds	B7
binds	B8
binds	B9
binds	B10
binds	B11
binds	B12
binds	B13
binds	B14
binds	B15
binds	B16
binds	B17
binds	B18
binds	B19
binds	B20
binds	B21

Each binder was assayed against T3, Tumor Suppressor (TSG101) 12-326 (assay: yeast two-hybrid).

binding result	Binder
binds	B22
binds	B23
binds	B24
binds	B25
binds	B26
